According to the supplement of paper PMC10567573:

B1: MED27 (parent)
chain: YNENVYTEDGKLDIWSKSNYQVFQ
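Further: lentivirally expressed fusions sorted by FACS into six bins by GFP to DsRed ratio, PSI derived from sequencing read proportions per bin multiplied by bin number.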

Variants of: B1
Test: protein stability index of a GFP-peptide fusion (GPS, HEK-293T) (PSI 1-6); higher = more stable
Settings: c terminus: a fixed tail appended
Work on YNENVYTEDGKLDKWSKSNYQVFQ [I14K] yielded a protein stability index of 2.71.
With YNENVYTEDGKLDFWSKSNYQVFQ [I14F] the protein stability index was 2.3.
Variant YNENVYTEDGKLDPWSKSNYQVFQ [I14P] has a protein stability index of 2.29.
Variant YNENVYTEDGKLDVWSKSNYQVFQ [I14V] has a protein stability index of 2.62.
For YNENVYTEDGKLDHWSKSNYQVFQ [I14H], the protein stability index was 2.83.
Work on YNENVYTEDGKLDGWSKSNYQVFQ [I14G] yielded a protein stability index of 3.29.
In the case of YNENVYTEDGKLDTWSKSNYQVFQ [I14T], the protein stability index is reported as 2.78.
YNENVYTEDGKLDLWSKSNYQVFQ [I14L] showed a protein stability index of 2.49.
YNENVYTEDGKLDNWSKSNYQVFQ [I14N] gave a protein stability index of 3.28.
In the case of YNENVYTEDGKLDCWSKSNYQVFQ [I14C], the protein stability index is reported as 2.92.
Work on YNENVYTEDGKLDRWSKSNYQVFQ [I14R] yielded a protein stability index of 3.23.
Variant YNENVYTEDGKLDEWSKSNYQVFQ [I14E] has a protein stability index of 3.87.
For YNENVYTEDGKLDYWSKSNYQVFQ [I14Y], the protein stability index was 1.95.
Variant YNENVYTEDGKLDQWSKSNYQVFQ [I14Q] has a protein stability index of 3.07.
YNENVYTEDGKLDSWSKSNYQVFQ [I14S] gave a protein stability index of 3.23.
YNENVYTEDGKLDAWSKSNYQVFQ [I14A] gave a protein stability index of 2.9.
Variant YNENVYTEDGKLDDWSKSNYQVFQ [I14D] has a protein stability index of 3.48.
For YNENVYTEDGKLDWWSKSNYQVFQ [I14W], the protein stability index was 2.15.
YNENVYTEDGKLDMWSKSNYQVFQ [I14M] gave a protein stability index of 2.65.
In the case of YNENVYTEDGKLDIWSHSNYQVFQ [K17H], the protein stability index is reported as 2.43.
In the case of YNENVYTEDGKLDIWSESNYQVFQ [K17E], the protein stability index is reported as 2.37.
For YNENVYTEDGKLDIWSRSNYQVFQ [K17R], the protein stability index was 1.95.
Variant YNENVYTEDGKLDIWSPSNYQVFQ [K17P] has a protein stability index of 2.68.
With YNENVYTEDGKLDIWSCSNYQVFQ [K17C] the protein stability index was 1.54.
In the case of YNENVYTEDGKLDIWSISNYQVFQ [K17I], the protein stability index is reported as 1.74.
For YNENVYTEDGKLDIWSQSNYQVFQ [K17Q], the protein stability index was 1.89.
In the case of YNENVYTEDGKLDIWSFSNYQVFQ [K17F], the protein stability index is reported as 1.68.
In the case of YNENVYTEDGKLDIWSNSNYQVFQ [K17N], the protein stability index is reported as 2.07.
For YNENVYTEDGKLDIWSTSNYQVFQ [K17T], the protein stability index was 1.84.
In the case of YNENVYTEDGKLDIWSASNYQVFQ [K17A], the protein stability index is reported as 2.24.
Variant YNENVYTEDGKLDIWSVSNYQVFQ [K17V] has a protein stability index of 2.17.
YNENVYTEDGKLDIWSYSNYQVFQ [K17Y] gave a protein stability index of 1.98.
Variant YNENVYTEDGKLDIWSWSNYQVFQ [K17W] has a protein stability index of 1.92.
In the case of YNENVYTEDGKLDIWSDSNYQVFQ [K17D], the protein stability index is reported as 2.26.
YNENVYTEDGKLDIWSSSNYQVFQ [K17S] showed a protein stability index of 1.98.
With YNENVYTEDGKLDIWSMSNYQVFQ [K17M] the protein stability index was 2.3.
Work on YNENVYTEDGKLDIWSGSNYQVFQ [K17G] yielded a protein stability index of 2.34.
With YNENVYTEDGKLDIWSLSNYQVFQ [K17L] the protein stability index was 2.22.
For YNENVYTEDGKLDIWPKSNYQVFQ [S16P], the protein stability index was 2.05.
YNENVYTEDGKLDIWFKSNYQVFQ [S16F] gave a protein stability index of 2.87.
With YNENVYTEDGKLDIWHKSNYQVFQ [S16H] the protein stability index was 1.93.
Work on YNENVYTEDGKLDIWRKSNYQVFQ [S16R] yielded a protein stability index of 1.78.
In the case of YNENVYTEDGKLDIWWKSNYQVFQ [S16W], the protein stability index is reported as 1.91.
YNENVYTEDGKLDIWYKSNYQVFQ [S16Y] gave a protein stability index of 2.02.
For YNENVYTEDGKLDIWKKSNYQVFQ [S16K], the protein stability index was 2.04.
Variant YNENVYTEDGKLDIWLKSNYQVFQ [S16L] has a protein stability index of 1.82.
YNENVYTEDGKLDIWIKSNYQVFQ [S16I] showed a protein stability index of 1.98.
Work on YNENVYTEDGKLDIWTKSNYQVFQ [S16T] yielded a protein stability index of 2.38.
YNENVYTEDGKLDIWVKSNYQVFQ [S16V] showed a protein stability index of 2.06.
Work on YNENVYTEDGKLDIWDKSNYQVFQ [S16D] yielded a protein stability index of 3.25.
For YNENVYTEDGKLDIWGKSNYQVFQ [S16G], the protein stability index was 2.33.
YNENVYTEDGKLDIWCKSNYQVFQ [S16C] showed a protein stability index of 2.06.
With YNENVYTEDGKLDIWQKSNYQVFQ [S16Q] the protein stability index was 2.26.
In the case of YNENVYTEDGKLDIWNKSNYQVFQ [S16N], the protein stability index is reported as 2.12.
YNENVYTEDGKLDIWAKSNYQVFQ [S16A] showed a protein stability index of 2.45.
YNENVYTEDGKLDIWMKSNYQVFQ [S16M] gave a protein stability index of 1.81.
Work on YNENVYTEDGKLDIWEKSNYQVFQ [S16E] yielded a protein stability index of 2.6.
With YNENVYTEDGKLDIWSKENYQVFQ [S18E] the protein stability index was 3.33.
YNENVYTEDGKLDIWSKGNYQVFQ [S18G] gave a protein stability index of 1.91.
With YNENVYTEDGKLDIWSKCNYQVFQ [S18C] the protein stability index was 1.86.
With YNENVYTEDGKLDIWSKANYQVFQ [S18A] the protein stability index was 2.34.
YNENVYTEDGKLDIWSKDNYQVFQ [S18D] showed a protein stability index of 3.09.
Variant YNENVYTEDGKLDIWSKFNYQVFQ [S18F] has a protein stability index of 1.36.
In the case of YNENVYTEDGKLDINSKSNYQVFQ [W15N], the protein stability index is reported as 4.08.
With YNENVYTEDGKLDIFSKSNYQVFQ [W15F] the protein stability index was 2.81.
YNENVYTEDGKLDIQSKSNYQVFQ [W15Q] showed a protein stability index of 3.89.
Variant YNENVYTEDGKLDIKSKSNYQVFQ [W15K] has a protein stability index of 4.03.
In the case of YNENVYTEDGKLDIYSKSNYQVFQ [W15Y], the protein stability index is reported as 3.19.
With YNENVYTEDGKLDISSKSNYQVFQ [W15S] the protein stability index was 3.83.
For YNENVYTEDGKLDITSKSNYQVFQ [W15T], the protein stability index was 3.7.
Variant YNENVYTEDGKLDIHSKSNYQVFQ [W15H] has a protein stability index of 3.85.
YNENVYTEDGKLDIMSKSNYQVFQ [W15M] gave a protein stability index of 3.3.
YNENVYTEDGKLDICSKSNYQVFQ [W15C] gave a protein stability index of 3.74.
For YNENVYTEDGKLDIGSKSNYQVFQ [W15G], the protein stability index was 4.19.
Work on YNENVYTEDGKLDIISKSNYQVFQ [W15I] yielded a protein stability index of 3.31.
For YNENVYTEDGKLDIRSKSNYQVFQ [W15R], the protein stability index was 3.64.
Variant YNENVYTEDGKLDIPSKSNYQVFQ [W15P] has a protein stability index of 3.74.
Work on YNENVYTEDGKLDIESKSNYQVFQ [W15E] yielded a protein stability index of 4.12.
For YNENVYTEDGKLDIVSKSNYQVFQ [W15V], the protein stability index was 3.5.
YNENVYTEDGKLDIDSKSNYQVFQ [W15D] gave a protein stability index of 4.42.
YNENVYTEDGKLDIASKSNYQVFQ [W15A] showed a protein stability index of 4.13.
YNENVYTEDGKLDILSKSNYQVFQ [W15L] gave a protein stability index of 3.32.
YNENVYTEDGKLPIWSKSNYQVFQ [D13P] gave a protein stability index of 2.81.
In the case of YNENVYTEDGKLVIWSKSNYQVFQ [D13V], the protein stability index is reported as 3.
Variant YNENVYTEDGKLQIWSKSNYQVFQ [D13Q] has a protein stability index of 2.05.
Work on YNENVYTEDGKLSIWSKSNYQVFQ [D13S] yielded a protein stability index of 1.92.
For YNENVYTEDGKLMIWSKSNYQVFQ [D13M], the protein stability index was 1.79.
In the case of YNENVYTEDGKLRIWSKSNYQVFQ [D13R], the protein stability index is reported as 2.32.
YNENVYTEDGKLTIWSKSNYQVFQ [D13T] showed a protein stability index of 1.63.
YNENVYTEDGKLLIWSKSNYQVFQ [D13L] gave a protein stability index of 1.69.
Work on YNENVYTEDGKLYIWSKSNYQVFQ [D13Y] yielded a protein stability index of 2.04.
With YNENVYTEDGKLWIWSKSNYQVFQ [D13W] the protein stability index was 2.46.
With YNENVYTEDGKLKIWSKSNYQVFQ [D13K] the protein stability index was 2.55.
Work on YNENVYTEDGKLNIWSKSNYQVFQ [D13N] yielded a protein stability index of 1.76.
